This series concerns the molecule itself. Put plainly: X-ray crystal structure of the TREX1 D18N-dsDNA complex (homodimer of protomers). The method, then: Structure Determination. The mouse recombinant Trex1 enzyme (amino acids 1-242) was prepared and crystallized with a dsDNA oligonucleotide. The X-ray data were collected and processed as described further below.
Protein Crystallization and X-ray Data Collection. The TREX1 D18N mutant was crystallized using the sitting drop vapor diffusion technique. The protein was dialyzed in 20 mM MES (pH 6.5), 50 mM NaCl and concentrated to 10 mg/mL. The pseudo-palindromic oligonucleotide DNA used for crystallization (5′-[…]-3′ (SEQ ID NO:1, Operon)) was self-annealed in buffer consisting of 20 mM NaCl, 5 mM MgCl₂, and 5 mM MES, pH 6.5. The complex was formed by incubating dsDNA with the protein in a 1:1 ratio and 5 mM magnesium chloride. A volume of 1 μl protein complex at 4 mg/ml TREX1 was mixed with an equal volume of reservoir solution and placed on a bridge above 500 μl of the reservoir solution. Optimized crystals of the TREX1 D18N mutant grew in 0.1 M sodium acetate and 9% PEG 4000 at 25° C. Prior to data collection all crystals were immersed in reservoir solution containing 10% oil (1:1 mineral oil and pantone-N) in preparation for cryo-cooling. Crystals were mounted on a nylon loop and flash cooled to 100 K in a stream of liquid nitrogen.

B1: mouse recombinant TREX1 D18N enzyme (amino acids 1-242) (enzyme, Mus musculus, UniProt Q91XB0 1-242, looked up)
chain: MGSQTLPHGHMQTLIFLNLEATGLPSSRPEVTELCLLAVHRRALENTSISQGHPPPVPRPPRVVDKLSLCIAPGKACSPGASEITGLSKAELEVQGRQRFDDNLAILLRAFLQRQPQPCCLVAHNGDRYDFPLLQTELARLSTPSPLDGTFCVDSIAALKALEQASSPSGNGSRKSYSLGSIYTRLYWQAPTDSHTAEGDVLTLLSICQWKPQALLQWVDEHARPFSTVKPMYGTPATTGTT
notes: range 1-242; Written as one protomer, because the entry is the protomer-protomer association; also called TREX1 D18N mutant; TREX1 D18N protomer
On to B1, for which the binding result is given as “binds”.

For the origin of these results see patent US20190021294A1 (WAKE FOREST UNIVERSITY HEALTH SCIENCES, published 2019).
